# Experimental data as given in US20090010987A1, “Methods and Devices for Reducing Tissue Damage After Ischemic Injury” (Conor Medsystems, Inc., priority 2005, published 2009).
# Assay: Retention of insulin bioactivity when delivered in PLGA
# Format: physicochemical
# Conditions: delivered in poly(lactide-co-glycolide) (PLGA)
# Excerpt: Protein or peptide drugs can be human, non-human, recombinant or synthetic and can be the full length native form or an active fragment thereof. Preferably the insulin is a stable, short acting form which is resistant to radiation. Insulin in its crystalline form may be used for improved resistance to radiation. When the insulin is combined with a polymer, an agent may be added to preserve bioactivity. […] For substantially longer administration periods, a buffering agent such as hydroxyapatite may be used to maintain the pH as the polymer degrades to release acidic byproducts.
substance,measurement,value
Insulin: hormone which improves glycolic metabolism and ATP production; anti-ischemic agent,period over which bioactivity is retained,at least 24 hours
